Assay results reported in the DeepSol protein solubility set.

assay: soluble on expression in E. coli; label from the status in PepcDB or PDB records

Row | Sequence | soluble on expression in E. coli
1 | MGSDKIHHHHHHMFPTFFGISSIHGGQMAHSVSQAYLHISPPQVIGCHDGTTFNSYTNDDSARRYNSKSANKAPPAGQAFGCHESTTFKRTQQVNTPLDVIHPNSNIPNLPPPAFGKCPYPPWQHLDAANTIFIFPPLTVTLITNSRRVSAAAYDSNAIESVMQGTLRKMRTRLDEQGLANYQLLVGDNEVELNPFIGSSIKLVHTGNIFCCNCGKKTKKSYSQGHCFVCMKKLASCDMCIMKPETCHFAEGTCREPEWGEANCFVPHYVYLSNTSGLKVGITRHTQLPTRWIDQGATQGLPILKVSSRQLSGLIEVELAKMIADKTNWRAMLKGNADPLPLKQHAEELLPQIEQHIHSLAMAHGEYAIERLNEEIVAIDYPVSEFPTKIASHNFDKDPVVSGTLLGIKGQYLIFDTGVINLRKFTAYEVSFEAE | not soluble
2 | MGSDKIHHHHHHMFQPPLIAFLTDFGLEDAFVGVMKGVIATICREAQVIDLTHAISAQNVRQAAFHLDRSISYFPAETIFVCVVDPGVGTARRAIGVEAGPYRFIAPDNGLLTPVFERWADAKCHELTNPAYQLANPSATFHGRDLFSPAAAHLATGVPLNAFGSAIDVANCTRIELWQNKPCDNGKVWTGEVIATDHFGNLITSFEASMLSDGEDWTVKAGNAEPLPILRTYGEVEQGKPLAYIGSSGMIEIAIRNGSASAELRVGGGDEVELRKG | not soluble
3 | MGSDKIHHHHHHMFSEGENVAKATIPLALESAEKNLETSNENEKARRSSSDTAISVRGISKCYQIYDAPRDRLKQFIIPRLRLARQQSRQYFREFWALKGISFEVRKGETVGIIGRNGSGKSTLLQIICGTLTPTAGSVETRGRIAALLELGSGFNPEFTGRENIYMNGAVLGLTREEIDDRFDSIVSFADIGQFIDQPVKTYSSGMSVRLAFAVQAQVDPDILIVDEALSVGDVRFQAKCFARLQQLKDNGTSVLLVTHSSEQIVTHCSSALLLNDGMQFEIGEPRHVVNRYLDLLFGKERRNPDSPQAQPGDIFQEDKGYAESAYQLSTDSDVFQTRNGYNTHEYRWGDGTASILDFYLAANGEPYPSAITVGQTVTLAVSIKFHSDMWRPILGITIKTKDGVTISGTNSEMADLLDLQALVKKGAILVGKCSFQCRLGPGDYFVSLGLATRENDEIIPHDRRYDSIHFIVEPHNKFHGLADLALDLSISHIVESNQI | not soluble
4 | MGSDKIHHHHHHMFSIAIQQQQYKTYILSDETTGSQLEVVPERGGIITRWRVKGEEILYLDAERFTHPDLSVRGGVPILFPICGNLPDNSYTLNGQQYTLKQHGFARDLPWEVVEQTTKDTAALTLVLRSNEQTKAVYPFDFQLVFTYVLQGNTLEIRQEYQNLSSTQLPFSAGFHPYFLTGDKNQLEFDIPSQEYQDQQTKEVHPFNGNFDFNRDEMDFAFGHITSQSASVIDRNRQFKLTLDADDIFSMLVFWTLKGKEFYCLEPWSAPRNSLNTGEKLTVLEPGTSYKASVRLSASFF | not soluble
5 | MGSDKIHHHHHHMFTDYVLLLFSTTPRRAKGLFNVLRGRRTVSTLFAGLTAGYLDLLDSCHEVPLEDFMAATAALTENGQLTSTATGCWQLTQAGEHRQAKLRQTLYMPQNFEVFQTTDVRRFRIVSQLALQVVSELVHHDRHYYPVTTDPGIQAQVKQWLRQQSKVELGEQIHAALTAFLTSLADPELPTVFVQGITGYQEPGLTNEQLAAQLGRQPWEASLMHTDVICQWIAWIQRHPRDPFSQLLSVLTQASAISQSAEQTYQAFLKTQQLAAIAQTRHLKMSTVREHLLEVAIWSPDFPFEMVLNHEITQQLATIFAAQPDIANWSFQEAQAALPTLDFFEFRLFQIMRCQHVRR | not soluble
6 | MGSDKIHHHHHHMFVGFDYGSANCAVGIMQGDEVSLLPLSTDSAYLPSTLYAMDRELIAEAVYRALPAELKADYAKKRAAQLSRARMVRHELDLDAESPAVFVGEQAVAAYLEMPEEGFYVRSPKSFLGATGLRPEQVALFEDIVTLMMQHIKVRAEAVLVQKGMASKDEARITHAVIGRPVNFQGIGGEESNRQAEAILTLAAKRAGFVDVAFLFEPLAAGMDYEAGLKADQTVLVVDVGGGTTDCSVVKMGPSHKASFDRSRDCLGHSGQRIGGNDLDIALAMNAFMPHFGLGSLMSNGKPMPSNPFWNAVAVNDISAQREFATLSTRKLIDELIKEAEQPNLLKRLLKVQQQQLSYQIVRLAERAKIALSDAHTTESSLEFIEAMLSAEVNRDCFENAIEPSLGKIEALMHQALTQAAKSLTGNGLAPEELSVEAGTAECQPDVIYVTGGTARSPAIYAKITSLYPDTPVVVGDHFGSVTAGLTRWAQKHFAQ | not soluble
7 | MGSDKIHHHHHHMFYQLYELNHAALQPARLYADAVRMFYSNPLNPIAHTHWGRSVAAGAELFERTTRRYGKPAFGLDKTVVDWKSVEVTEKTVWSKPFCNLVRFERAMPAGRKPDPKLLIVAPMSGHYATLLRGTVEAMLPYADVHITDWVDARMVPLVDGSFDLDDYIDYIIEMFHALGPDTHVMAVCQPSVPVLAAVALMEAKGDPFVPSTMTLMGGPIDTRRNPTAVNLLAEEKGIDWFRDNVVMRAPWPVPGFGREVYPGFLQLSGFMSMNLDRHIIAHKDFFMHLVKNDGDNAEKHRDFYDEYMAVMDLTAEFYLQTVDTVFVRHALPKGEMKHRGAAIDTSAIRNVALFTVEGENDDISGLGQTKAAQDLCINIPADKKAHYMQPAVGHYGVFNGSRFRSEIVPRIVDFITSYGRQNRVAVKPKLVRTAKR | not soluble
8 | MGSDKIHHHHHHMGEELPVSQPVDQRPLEHQDHCQAAEPAAMDPPAGEDFYEKDFITYLSDENEQEISRAFIVANPGMVKFHFVDKVYEQLALKDKQVDTAIYSEVLPDPPLSQAIKIAKQMKKFAPDTIIAIGGGSALDVSKIARYIYEYSLDQEDGWLDIYDNVSELIKELQQKFVDIRKRIVKFKHETRTSLVMTRSLKAPS | not soluble
9 | MGSDKIHHHHHHMGEQQLDCALDLMRRLPPQHCDKNLTDLIDLCPHLVDDLLSTIDQPLKIAADRETGKQYLLCDYNRDGDSYRSPWSNTYDPPLEDGQLPSEKRRKMEIEANAAFESYRDLYFEGGVSSVYFWDLDNGGFAGIVLIKKEGDGAKNITGCWDSIHVIEITERARQAHYKLTSTIMLWLQTNKSSSGVMNLGGSLTRQHEMDAPINDQNTHLANMGRMIEDQESKMRLTINEIYFGKTKKVMSDLRSTEKQSELEKQDEIVRELNNAMANRGN | not soluble
10 | MGSDKIHHHHHHMGKPHRIALALQGGGVHGAFTWGVLDALLEEAATGKIEFVGVSGASSGALTATAMAYGYHEGAAQPGPASARSRRMAEAARTKIRELWETVARAAFWGGNPFVAAIGLAQDWNIDDTPAARWADVAGGNTPAAESGLGTYLTAVLRDVLPQIPAIFALPQEGTPTLIVAATDIGECRRQLFIDGAVSPDAVRASTNLPTSLHTVSIGDHHYWDGGYMGNPPLTPLVERLRETNAEDLVLVTLNPLHRDGPPPKGGRQVLDRLNEVAFNASLVHEVNAIETINRLVDADMIKEPPPGQHPYRRVNLHRIHADEEMVKLGVYSKDAPAWDFLVYLRDLGRKAFTESWETIRPALGKHSSWDTNSVCDQILARKAITTREK | not soluble
11 | MGSDKIHHHHHHMGKQQIWKNWWENHTCTPEHYYQPEQIDEVVEIIKSANLEQKQIKVIGSGRSWSDIPCTDGYMISLDKFNQVLDIDIEQKTVIVKSGIRIYQLVDILAKHGLALSSLGSICEQSIAGAISTGTHGNSLHQGGLASSILELELVNGIGEVIKCSKSENPDLFSAALIGLGAIGIITQVKIQCCNQFWLTETLQCWNIKDVLENLDTLKKNDYCRFWYTTTNKDAIVQTFSDSQILEKTGFIHFIKRIITQIFWFLWISWHDNPAEHDSQSFTRKDESQHILCYPRFFLKLYKLSFRMTKYCQNVLISEYGIPEEMASIAMNKILSLVDRGIIKGHLRFEVRFGAAEDVWLSTAYQRPTCYIQVLFEKKNFTSTQDQNDAFIQVENIIKNLAGRPHWAKDHLYTNDDLRSTYPRWQEFLQIRQQTDPQQCFTNSYLNKIFDDVRRTA | not soluble
12 | MGSDKIHHHHHHMGLFNIFDVAGSGMSAQSLRLNTTASNIANADSVSSSIDKTYRSRHPIFEAEMAKAQSQQQASQGVAVKGIVESDKPLLKEYSPDHPMADGDGFIYKPNVNVMEEMADMISASRSYQMNVQVAEAAKSMLQQTLGMGK | not soluble
13 | MGSDKIHHHHHHMGLLTNLKDSISRAASTLFSEEDPKRIGIYGPPNAGKTTLANRIARDWTGDAVGPESHVPHETRRARRKENVEIERDGKKVTIDIVDTPGVTTKVDYTEFLEHDMEKDDAVRRSREATEGVAEAMHWLREDVDGVIYVLDSATDPFTQVNTMLIGIIESQDLPVLILANKIDLEESSVQRIRNAYPQHETIPLSALEGDNMDEVYDKIAEYFG | not soluble
